# Patent US20190185560A1 (Novo Nordisk, published 2019)
# Positions count from the first letter of the chain named. Names may count otherwise.
# T1: cynomolgus TREM-1 on cells (TE426.27 reporter cell line) (cynomolgus monkey)
# T1 chain: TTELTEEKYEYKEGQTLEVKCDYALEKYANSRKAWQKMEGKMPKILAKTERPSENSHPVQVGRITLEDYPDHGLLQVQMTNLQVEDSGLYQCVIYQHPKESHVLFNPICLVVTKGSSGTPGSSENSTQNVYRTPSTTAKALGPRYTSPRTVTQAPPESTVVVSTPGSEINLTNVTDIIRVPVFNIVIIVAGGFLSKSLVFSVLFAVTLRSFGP
# T2: cynomolgus TREM-1-Fc (cynomolgus monkey)
# T2 construct: also called cTREM-1
# T2 chain: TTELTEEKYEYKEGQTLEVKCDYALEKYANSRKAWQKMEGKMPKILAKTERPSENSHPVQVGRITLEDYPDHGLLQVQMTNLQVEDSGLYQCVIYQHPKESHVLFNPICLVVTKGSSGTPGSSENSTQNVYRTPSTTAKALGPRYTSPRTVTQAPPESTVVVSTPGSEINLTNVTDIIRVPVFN
# B1: Fab region of mAb 0170 (Fab, V domains shown)
# VH: EVQLVESGGGLVQPGGSLKLSCAASGFTFSTYAMHWVRQASGKGLEWVGRIRTKSSNYATYYAASVKGRFTISRDDSKNTAYLQMNSLKTEDTAVYYCTRDMGIRRQFAYWGQGTLVTVSS
# VL: DIVLTQSPDSLAVSLGERATINCRASESVDTFDYSFLHWYQQKPGQPPKLLIYRASNLESGVPDRFSGSGSGTDFTLTISSLQAEDVAVYYCQQSNEDPYTFGQGTKLEIKR
# notes: Crystallised alone; packs as Fab-Fab dimers; also called Fab 0170; mAb 170 Fab region
# B2: mAb 0170 (humanised TREM-1 antibody, mAb 0170 of WO2013/120553) (antibody, V domains shown)
# VH: B1 VH
# VL: B1 VL
# notes: also called mAb 170
# B3: mAb 0319 (mAb 0170 variant, light chain E97S) (antibody, human IgG4 S228P, kappa, V domains shown)
# VH: B1 VH
# VL: B1 VL with E97S
# notes: Charge patch mutation
# B4: mAb 0318 (mAb 0170 variant, light chain E27Q, E97Q) (antibody, human IgG4 S228P, kappa, V domains shown)
# VH: B1 VH
# VL: B1 VL with E27Q, E97Q
# notes: Charge patch mutations
# B5: mAb 0317 (mAb 0170 variant, light chain E27Q, E97S) (antibody, human IgG4 S228P, kappa, V domains shown)
# VH: B1 VH
# VL: B1 VL with E27Q, E97S
# notes: Charge patch mutations
# B6: mAb 0322 (mAb 0170 variant, light chain F32A) (antibody, human IgG4 S228P, kappa, V domains shown)
# VH: B1 VH
# VL: B1 VL with F32A
# B7: mAb 0330 (mAb 0170 variant, light chain F32A, E27Q, E97Q) (antibody, human IgG4 S228P, kappa, V domains shown)
# VH: B1 VH
# VL: B1 VL with E27Q, F32A, E97Q
# B8: mAb 0333 (mAb 0170 variant, heavy chain A59Y, light chain F32A, E27Q, E97Q) (antibody, human IgG4 S228P, kappa, V domains shown)
# VH: B1 VH with A59Y
# VL: B1 VL with E27Q, F32A, E97Q
# B9: mAb 0320 (mAb 0170 variant, light chain E97Q) (antibody, human IgG4 S228P, kappa, V domains shown)
# VH: B1 VH
# VL: B1 VL with E97Q
# notes: Charge patch mutation
# B10: mAb 0323 (mAb 0170 variant, light chain F32S) (antibody, human IgG4 S228P, kappa, V domains shown)
# VH: B1 VH
# VL: B1 VL with F32S
# B11: mAb 0332 (mAb 0170 variant, heavy chain A59Y, light chain E27Q, E97Q) (antibody, human IgG4 S228P, kappa, V domains shown)
# VH: B1 VH with A59Y
# VL: B1 VL with E27Q, E97Q
# B12: mAb 0325 (mAb 0170 variant, heavy chain N57S) (antibody, human IgG4 S228P, kappa, V domains shown)
# VH: B1 VH with N57S
# VL: B1 VL
# B13: mAb 0321 (mAb 0170 variant, light chain E27Q) (antibody, human IgG4 S228P, kappa, V domains shown)
# VH: B1 VH
# VL: B1 VL with E27Q
# notes: Charge patch mutation
# B14: mAb 0324 (mAb 0170 variant, heavy chain A59Y) (antibody, human IgG4 S228P, kappa, V domains shown)
# VH: B1 VH with A59Y
# VL: B1 VL
# Target: the molecule itself
# Assay: X-ray crystal structure of the Fab region of mAb 0170 (self-interaction in the crystal)
# Protocol: The crystal was transferred to a drop consisting of 2 μL 35% (w/v) PEG3350, 200 mM K₂HPO₄ and mounted in a 0.2 mm diameter litholoop (Molecular Dimensions Limited) and flash-cooled in liquid nitrogen.
# Data were collected to a resolution of 2.40 Å. […] The search models were structures of the heavy chain from the pdb entry 1AD0.pdb (85% identity) and the light chain from the pdb entry 2QRG (94% identity).
row,Binder,binding result
1,B1,binds

# Target: T1, cynomolgus TREM-1 on cells (TE426.27 …)
# Assay: cell-based or functional assay
row,Binder,IC50: inhibition of luminescence of TE426.27 cynomolgus TREM-1 reporter cells stimulated with PGN and recombinant PGLYRP1
1,B2,6 nM
2,B3,17.7 nM
3,B4,5.6 nM
4,B5,9.5 nM
5,B6,5.9 nM
6,B7,10.7 nM

# Target: T2, cynomolgus TREM-1-Fc
# Assay: SPR (ProteOn), antibody captured via anti-Fc, TREM-1-Fc as analyte, 1:1 Langmuir fit, 25 C
# Protocol: Binding studies were performed on a ProteOn Analyzer (BioRad) that measures molecular interactions in real time through surface plasmon resonance. Experiments were run at 25° C. and the samples were stored at 15° C. in the sample compartment. The signal (RU, response units) reported by the ProteOn is directly correlated to the mass on the individual sensor chip surfaces in the six parallel flow cells. Anti-human Fc monoclonal or anti-murine Fc polyclonal antibody from Biacore human or mouse Fc capture kits were immobilized in horizontal direction onto flow cells of a GLM sensor chip according to the manufacturer's instructions. The final immobilization level of capture antibody was approximately 2600-6000 RU in each experiment. The capture of purified monoclonal mouse or recombinantly expressed anti-hTREM-1 antibodies was conducted by diluting the antibodies to 5-10 nM into running buffer (10 mM Hepes 0.15 M NaCl, 5 mM EDTA, 0.05% surfactant P20, pH 7.4) followed by injection in vertical direction at 30 μL/min for 60 sec, creating reference interspots adjacent to all flow cells with only anti-Fc antibody immobilized. […] Binding of hTREM-1 or cTREM-1 proteins was conducted by injecting analyte (antigen) over all flow cells in horizontal direction to allow for comparative analyses of binding to different captured anti-TREM-1 antibodies relative to binding to the reference interspot. hTREM-1 or cTREM-1 proteins were diluted serially 1:3 to 1.2-100 nM or into running buffer, injected at 100 μL/min for 250 s and allowed to dissociate for 600 s. The GLM surface was regenerated after each injection cycle of analyte via two 18 s injections of 10 mM Glycine, pH 1.7 and 50 mM NaOH at 100 μL/min. This regeneration step removed the anti-TREM-1 antibody and any bound TREM-1 protein from the immobilized capture antibody surface and allowed for the subsequent binding of the next interaction sample pair.
row,Binder,Kd
1,B2,2 nM
2,B8,0.3 nM
3,B9,3 nM
4,B10,0.6 nM
5,B11,4 nM
6,B3,2 nM
7,B12,1 nM
8,B4,2 nM
9,B5,3 nM
10,B6,0.1 nM
11,B13,2 nM
12,B14,4 nM
13,B7,0.1 nM
